Test results published in IntAct's records for PubMed 31515488.

B1: Ankyrin repeat and BTB/POZ domain-containing protein 1 (Homo sapiens), Q969K4 (parent)
chain: MDTSDLFASCRKGDVGRVRYLLEQRDVEVNVRDKWDSTPLYYACLCGHEELVLYLLANGARCEANTFDGERCLYGALSDPIRRALRDYKQVTASCRRRDYYDDFLQRLLEQGIHSDVVFVVHGKPFRVHRCVLGARSAYFANMLDTKWKGKSVVVLRHPLINPVAFGALLQYLYTGRLDIGVEHVSDCERLAKQCQLWDLLSDLEAKCEKVSEFVASKPGTCVKVLTIEPPPADPRLREDMALLADCALPPELRGDLWELPFPCPDGFNSCPDICFRVAGCSFLCHKAFFCGRSDYFRALLDDHFRESEEPATSGGPPAVTLHGISPDVFTHVLYYMYSDHTELSPEAAYDVLSVADMYLLPGLKRLCGRSLAQMLDEDTVVGVWRVAKLFRLARLEDQCTEYMAKVIEKLVEREDFVEAVKEEAAAVAARQETDSIPLVDDIRFHVASTVQTYSAIEEAQQRLRALEDLLVSIGLDC
B2: Zinc finger protein 544 (Homo sapiens), Q6NX49 (parent)
chain: MEARSMLVPPQASVCFEDVAMAFTQEEWEQLDLAQRTLYREVTLETWEHIVSLGLFLSKSDVISQLEQEEDLCRAEQEAPRDWKATLEENRLNSEKDRAREELSHHVEVYRSGPEEPPSLVLGKVQDQSNQLREHQENSLRFMVLTSERLFAQREHCELELGGGYSLPSTLSLLPTTLPTSTGFPKPNSQVKELKQNSAFINHEKNGADGKHCESHQCARAFCQSIYLSKLGNVETGKKNPYEYIVSGDSLNYGSSLCFHGRTFSVKKSDDCKDYGNLFSHSVSLNEQKPVHFGKSQYECDECRETCSESLCLVQTERSGPGETPFRCEERCAAFPMASSFSDCNIIQTTEKPSVCNQCGKSFSCCKLIHQRTHTGEKPFECTQCGKSFSQSYDLVIHQRTHTGEKPYECDLCGKSFTQRSKLITHQRIHTGEKPYQCIECRKSFRWNSNLIVHQRIHTGEKPYECTHCGKSFSQSYELVTHKRTHTGEKPFKCTQCGKSFSQKYDLVVHQRTHTGEKPYECNLCGKSFSQSSKLITHQRIHTGEKPYQCIECGKSFRWNSNLVIHQRIHTGEKPYDCTHCGKSFSQSYQLVAHKRTHTGEKPYECNECGKAFNRSTQLIRHLQIHTGEKPYKCNQCNKAFARSSYLVMHQRTHTGEKPFECSQCGKAFSGSSNLLSHHRIHSGEKPYECSDCGKSFRQQSQLVVHRRTHTGEKP
partner: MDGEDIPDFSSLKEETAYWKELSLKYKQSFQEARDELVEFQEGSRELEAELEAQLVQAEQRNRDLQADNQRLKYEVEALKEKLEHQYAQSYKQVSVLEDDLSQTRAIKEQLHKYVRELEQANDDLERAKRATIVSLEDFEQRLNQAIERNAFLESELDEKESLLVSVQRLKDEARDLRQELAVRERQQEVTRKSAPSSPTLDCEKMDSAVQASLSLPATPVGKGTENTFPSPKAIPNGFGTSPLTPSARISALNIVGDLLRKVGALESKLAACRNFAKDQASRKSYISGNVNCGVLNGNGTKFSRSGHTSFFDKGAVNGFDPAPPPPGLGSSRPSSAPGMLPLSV
B3: Microtubule-associated tumor suppressor candidate 2 (Homo sapiens), Q5JR59-3 (parent)
chain: MGHCCCKPYNCLQCLDKTNESALVKEKELSIELANIRDEVAFHTAKCEKLQKEKEELERRFEDEVKRLGWQQQAELQELEERLQLQFEAEMARLQEEHGDQLLSIRCQHQEQVEDLTASHDAALLEMENNHTVAITILQDDHDHKVQELMSTHELEKKELEENFEKLRLSLQDQVDTLTFQSQSLRDRARRFEEALRKNTEEQLEIALAPYQHLEEDMKSLKQVLEMKNQQIHEQEKKILELEKLAEKNIILEEKIQVLQQQNEDLKARIDQNTVVTRQLSEENANLQEYVEKETQEKKRLSRTNEELLWKLQTGDPTSPIKLSPTSPVYRGSSSGPSSPARVSTTPR
partner: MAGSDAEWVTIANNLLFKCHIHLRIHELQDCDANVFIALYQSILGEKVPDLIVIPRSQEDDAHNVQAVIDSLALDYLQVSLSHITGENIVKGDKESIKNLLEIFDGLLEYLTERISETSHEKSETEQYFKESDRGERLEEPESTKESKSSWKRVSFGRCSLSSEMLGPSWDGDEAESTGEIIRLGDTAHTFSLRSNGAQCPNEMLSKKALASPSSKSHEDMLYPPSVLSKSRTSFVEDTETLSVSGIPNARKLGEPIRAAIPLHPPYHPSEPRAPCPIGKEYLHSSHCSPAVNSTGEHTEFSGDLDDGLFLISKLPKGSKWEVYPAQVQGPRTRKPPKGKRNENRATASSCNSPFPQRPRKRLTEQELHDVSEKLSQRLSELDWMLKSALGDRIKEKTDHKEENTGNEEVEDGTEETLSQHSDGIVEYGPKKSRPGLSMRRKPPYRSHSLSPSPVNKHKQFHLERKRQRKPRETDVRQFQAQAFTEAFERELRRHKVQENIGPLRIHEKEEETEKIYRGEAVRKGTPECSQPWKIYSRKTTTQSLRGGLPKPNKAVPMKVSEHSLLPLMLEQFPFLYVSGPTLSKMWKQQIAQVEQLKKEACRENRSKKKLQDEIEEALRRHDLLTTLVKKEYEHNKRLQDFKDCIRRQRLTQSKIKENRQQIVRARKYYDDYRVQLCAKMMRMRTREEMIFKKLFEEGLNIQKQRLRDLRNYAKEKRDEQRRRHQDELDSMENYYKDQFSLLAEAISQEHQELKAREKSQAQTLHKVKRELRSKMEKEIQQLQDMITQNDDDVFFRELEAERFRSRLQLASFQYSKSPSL
B4: Vacuolar protein sorting-associated protein 28 homolog (Homo sapiens), Q9UK41-2 (parent)
chain: MFHGIPATPGIGAPGNKPELYEEVKLYKNAREREKYDNMAELFAVVKTMQALEKAYIKDCVSPSEYTAACSRLLVQYKAAFRQVQGSEISSIDEFCRKFRLDCPLAMERIKEDRPITIKDDKGNLNRCIADVVSLFITVMDKLRLEIRAMDEIQPDLRELMETMHRMSHLPPDFEGRQTVSQWWVSLPARQSPAVPETLPARRSPAVPLRPSAPTCPVLHSQAADPERHVGVR
B5: Protein-associating with the carboxyl-terminal domain of ezrin (Homo sapiens), Q8IZE3 (parent)
chain: MGSENSALKSYTLREPPFTLPSGLAVYPAVLQDGKFASVFVYKRENEDKVNKAAKHLKTLRHPCLLRFLSCTVEADGIHLVTERVQPLEVALETLSSAEVCAGIYDILLALIFLHDRGHLTHNNVCLSSVFVSEDGHWKLGGMETVCKVSQATPEFLRSIQSIRDPASIPPEEMSPEFTTLPECHGHARDAFSFGTLVESLLTILNEQVSADVLSSFQQTLHSTLLNPIPKCRPALCTLLSHDFFRNDFLEVVNFLKSLTLKSEEEKTEFFKFLLDRVSCLSEELIASRLVPLLLNQLVFAEPVAVKSFLPYLLGPKKDHAQGETPCLLSPALFQSRVIPVLLQLFEVHEEHVRMVLLSHIEAYVEHFTQEQLKKVILPQVLLGLRDTSDSIVAITLHSLAVLVSLLGPEVVVGGERTKIFKRTAPSFTKNTDLSLEDSPMCVVCSHHSQISPILENPFSSIFPKCFFSGSTPINSKKHIQRDYYNTLLQTGDPFSQPIKFPINGLSDVKNTSEDSENFPSSSKKSEEWPDWSEPEEPENQTVNIQIWPREPCDDVKSQCTTLDVEESSWDDCEPSSLDTKVNPGGGITATKPVTSGEQKPIPALLSLTEESMPWKSSLPQKISLVQRGDDADQIEPPKVSSQERPLKVPSELGLGEEFTIQVKKKPVKDPEMDWFADMIPEIKPSAAFLILPELRTEMVPKKDDVSPVMQFSSKFAAAEITEGEAEGWEEEGELNWEDNNW
partner: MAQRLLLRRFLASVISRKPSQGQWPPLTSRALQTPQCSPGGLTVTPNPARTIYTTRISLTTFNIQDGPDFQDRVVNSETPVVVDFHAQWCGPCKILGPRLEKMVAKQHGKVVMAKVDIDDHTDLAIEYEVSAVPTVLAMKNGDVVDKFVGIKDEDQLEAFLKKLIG

Variants of: B1
Conditions: with ef1d_human EEF1D

effect of a mutation on the interaction	Variant
with no effect	MDTSDLFASCRKGDVGRVRYLLEQRDVEVNVRDKWDSTPLYYACLCGHEELVLYLLANGARCEANTFDGERCLYGALSDPIRRALRDYKQVTASCRRRDYYDDFLQRLLEQGIHSDVVFVVHGKPFRVHRCVLGARSAYFANMLDTKWKGKSVVVLRHPLINPVAFGALLQYLYTGRLDIGVEHVSDCERLAKQCQLWDLLSDLEAKCEKVSEFVASKPGTCVKVLTIEPPPADPRLREDMALLADCALPPELRGDLWELPFPCPDGFNSCPDICFRVAGCSFLCHKAFFCGRSDYFRALLDDHFRESEEPATSGGPPAVTLHGISPDVFTHVLYYMYSDHTELSPEAAYDVLSVADMYLLPGLKRLCGRSLAQMLDEDTVVGVWHVAKLFRLARLEDQCTEYMAKVIEKLVEREDFVEAVKEEAAAVAARQETDSIPLVDDIRFHVASTVQTYSAIEEAQQRLRALEDLLVSIGLDC [R386H]

Variants of: B1
Conditions: with ef1a2_human EEF1A2, Q05639
Chain of ef1a2_human EEF1A2, Q05639 (Q05639 whole entry): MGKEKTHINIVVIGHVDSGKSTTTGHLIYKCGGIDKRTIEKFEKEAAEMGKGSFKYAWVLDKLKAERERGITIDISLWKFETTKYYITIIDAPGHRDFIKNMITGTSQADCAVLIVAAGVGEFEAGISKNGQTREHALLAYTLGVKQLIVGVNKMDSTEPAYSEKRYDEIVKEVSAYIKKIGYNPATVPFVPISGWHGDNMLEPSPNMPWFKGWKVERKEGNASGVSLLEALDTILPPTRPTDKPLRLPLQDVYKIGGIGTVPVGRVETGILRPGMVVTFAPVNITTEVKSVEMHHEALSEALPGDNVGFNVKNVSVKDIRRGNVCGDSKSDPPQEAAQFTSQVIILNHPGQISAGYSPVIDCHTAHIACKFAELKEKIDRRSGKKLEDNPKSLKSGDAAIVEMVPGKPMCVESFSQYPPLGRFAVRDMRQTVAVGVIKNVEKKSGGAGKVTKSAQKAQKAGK

effect of a mutation on the interaction	Variant
with no effect	MDTSDLFASCRKGDVGRVRYLLEQRDVEVNVRDKWDSTPLYYACLCGHEELVLYLLANGARCEANTFDGERCLYGALSDPIRRALRDYKQVTASCRRRDYYDDFLQRLLEQGIHSDVVFVVHGKPFRVHRCVLGARSAYFANMLDTKWKGKSVVVLRHPLINPVAFGALLQYLYTGRLDIGVEHVSDCERLAKQCQLWDLLSDLEAKCEKVSEFVASKPGTCVKVLTIEPPPADPRLREDMALLADCALPPELRGDLWELPFPCPDGFNSCPDICFRVAGCSFLCHKAFFCGRSDYFRALLDDHFRESEEPATSGGPPAVTLHGISPDVFTHVLYYMYSDHTELSPEAAYDVLSVADMYLLPGLKRLCGRSLAQMLDEDTVVGVWHVAKLFRLARLEDQCTEYMAKVIEKLVEREDFVEAVKEEAAAVAARQETDSIPLVDDIRFHVASTVQTYSAIEEAQQRLRALEDLLVSIGLDC [R386H]

Variants of: B1
Conditions: with cul3_human CUL3, Q13618

effect of a mutation on the interaction	Variant
with no effect	MDTSDLFASCRKGDVGRVRYLLEQRDVEVNVRDKWDSTPLYYACLCGHEELVLYLLANGARCEANTFDGERCLYGALSDPIRRALRDYKQVTASCRRRDYYDDFLQRLLEQGIHSDVVFVVHGKPFRVHRCVLGARSAYFANMLDTKWKGKSVVVLRHPLINPVAFGALLQYLYTGRLDIGVEHVSDCERLAKQCQLWDLLSDLEAKCEKVSEFVASKPGTCVKVLTIEPPPADPRLREDMALLADCALPPELRGDLWELPFPCPDGFNSCPDICFRVAGCSFLCHKAFFCGRSDYFRALLDDHFRESEEPATSGGPPAVTLHGISPDVFTHVLYYMYSDHTELSPEAAYDVLSVADMYLLPGLKRLCGRSLAQMLDEDTVVGVWHVAKLFRLARLEDQCTEYMAKVIEKLVEREDFVEAVKEEAAAVAARQETDSIPLVDDIRFHVASTVQTYSAIEEAQQRLRALEDLLVSIGLDC [R386H]

Variants of: B2
Conditions: with ndel1_human NDEL1, Q9GZM8

effect of a mutation on the interaction	Variant
with no effect	K406M

Variants of: B3
Conditions: with cep95_human CEP95, Q96GE4

effect of a mutation on the interaction	Variant
with no effect	MGHCCCKPYNCLQCLDKTNESALVKEKELSIELANIRDEVAFHTAKCEKLQKEKEELERRFEDEVKRLGWQQQAELQELEERLQLQFEVEMARLQEEHGDQLLSIRCQHQEQVEDLTASHDAALLEMENNHTVAITILQDDHDHKVQELMSTHELEKKELEENFEKLRLSLQDQVDTLTFQSQSLRDRARRFEEALRKNTEEQLEIALAPYQHLEEDMKSLKQVLEMKNQQIHEQEKKILELEKLAEKNIILEEKIQVLQQQNEDLKARIDQNTVVTRQLSEENANLQEYVEKETQEKKRLSRTNEELLWKLQTGDPTSPIKLSPTSPVYRGSSSGPSSPARVSTTPR [A89V]

Variants of: B4
Conditions: with ts101_human TSG101, Q99816

effect of a mutation on the interaction	Variant
with no effect	MFHGIPATPGIGAPGNKPELYEEVKLYKNAREREKYDNMAELFAVVKTMQALEKAYIKDCVSPSEYTAACSRLLVQYKAAFRQVQGSEISSIDEFCRKFRLDCPLAMERIKEDRPITIKDDKGNLNRCIADVVSLFITVMDKLRLEIRAMDEIQPDLRELMETMHRMSHLPPDFEGRQTVSQWWVSLPARQSPAVPETLPARWSPAVPLRPSAPTCPVLHSQAADPERHVGVR [R203W]

Variants of: B5
Conditions: with thiom_human TXN2, Q99757

effect of a mutation on the interaction	Variant
with no effect	Q621R
